Results on 24 sequences are retold here after the supplement of paper PMC10899765.

Holding throughout (conditions): 20 nM; 72 h
In data set [1] the test system is MCF10A. The experiment in a line: one-nucleolus phenotype percent effect (relative to siNT 0% and siNOL11 100%); higher = more cells with one nucleolus (ribosome biogenesis inhibition). The protocol:
(§1)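 After 72 h, cells were fixed and stained with Hoechst and anti-fibrillarin, and nucleoli per nucleus were counted with CellProfiler. Values are plate-adjusted percent effect for the one-nucleolus and 5+ nucleoli phenotypes, normalised to siNT (0%) and to the positive controls siNOL11 or siKIF11 (100%), as the mean of biological triplicates. Percent viability is the nuclei count relative to siNT.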

The subject of data set [2] is MCF10A. Briefly: 5+ nucleoli phenotype percent effect (relative to siNT 0% and siKIF11 100%); higher = more cells with five or more nucleoli. On the procedure: as §1
Data set [3] relates to MCF10A. The experiment in a line: percent viability (nuclei count relative to siNT); higher = more viable cells. On the procedure:
as §1

On to AGCCCCUGCCCACCGCACACUG [hsa-miR-210-5p], for which, in data set [1], the “one-nucleolus phenotype percent effect” value is -21%. For the same sequence, the “5+ nucleoli phenotype percent effect” value in data set [2] amounted to 53%. The percent viability in data set [3] came to 101%.
For “CUGCCCUAGUCUAGCUGAAGCU [hsa-miR-3157-3p]”, in that order: -21.2%, 27.8% and 170%.
For GUGUCUGCUUCCUGUGGGA [hsa-miR-632], in that order: 31.3%, -24.2% and 37%.
Taken in the same sequence, the figures for UGGGUGGAAGAAGGUCUGGUU [hsa-miR-6745] were 17.1%, -9.03% and 6.73%.
As for “UAACACUGUCUGGUAACGAUGU [hsa-miR-200a-3p]”, the “one-nucleolus phenotype percent effect” value in data set [1] is -6.99%. The “5+ nucleoli phenotype percent effect” value in data set [2] worked out at 36.9%. In data set [3], the percent viability was determined as 75.6%.
In the case of CUCCAGAGGGAUGCACUUUCU [hsa-miR-525-5p], in data set [1], the “one-nucleolus phenotype percent effect” value stood at 20.6%. Moreover, in data set [2], the “5+ nucleoli phenotype percent effect” value was -22.1%. Further, the percent viability in data set [3] turned out to be 36.5%.
For “GCAUGUGAUGAAGCAAAUCAGU [hsa-miR-3607-5p]”, the “one-nucleolus phenotype percent effect” value in data set [1] was -2.14%. The “5+ nucleoli phenotype percent effect” value in data set [2] is -8.33%. Moreover, in data set [3], the percent viability came out at 52.8%.
For the sequence GGGGAGCGAGGGGCGGGGC [hsa-miR-6090], the “one-nucleolus phenotype percent effect” value in data set [1] is -21.8%. Further, the “5+ nucleoli phenotype percent effect” value in data set [2] was found to be 36.1%. Further, in data set [3], the percent viability worked out at 164%.
Regarding AGAUGUAUGGAAUCUGUAUAUAUC [hsa-miR-3171], the “one-nucleolus phenotype percent effect” value in data set [1] is -12.5%. Also, the “5+ nucleoli phenotype percent effect” value in data set [2] was determined as 13.6%. In data set [3], the percent viability was 91.9%.
For UAUGUAAUAUGGUCCACAUCUU [hsa-miR-380-3p], in that order: 0.458%, -13.1% and 90%.
On to GCACCCAGGCAAGGAUUCUG [hsa-miR-500b-3p], for which, in data set [1], the “one-nucleolus phenotype percent effect” value amounted to 11.8%. Further, the “5+ nucleoli phenotype percent effect” value in data set [2] is -15.3%. Moreover, the percent viability in data set [3] was determined as 76.8%.
In the case of GCAGGACAGGCAGAAGUGGAU [hsa-miR-4436a], the “one-nucleolus phenotype percent effect” value in data set [1] is -24.9%. In data set [2], the “5+ nucleoli phenotype percent effect” value worked out at 32.1%. For the same sequence, the percent viability in data set [3] worked out at 105%.
For UGAGGGCUCCAGGUGACGGUGG [hsa-miR-4721], in that order: 27.2%, -20.6% and 22%.
Take “UCCCAGGGUCUGGUCAGAGUUG [hsa-miR-6764-5p]”: in data set [1], the “one-nucleolus phenotype percent effect” value came out at 29.5%. In addition, the “5+ nucleoli phenotype percent effect” value in data set [2] is -18.4%. In addition, in data set [3], the percent viability was found to be 25.8%.
As to “UAGGCAGUGUAUUGCUAGCGGCUGU [hsa-miR-449c-5p]”, the “one-nucleolus phenotype percent effect” value in data set [1] came to 17.4%. In data set [2], the “5+ nucleoli phenotype percent effect” value was -19.5%. Besides, the percent viability in data set [3] worked out at 17.7%.
Taken in the same sequence, the figures for UGACUGCCUCACUGACCACUU [hsa-miR-5002-3p] were -1.84%, -20.8% and 50.5%.
Turning to “CAGGGAGAAGGUGGAAGUGCAGA [hsa-miR-6760-5p]”, the “one-nucleolus phenotype percent effect” value in data set [1] is -0.928%. In addition, the “5+ nucleoli phenotype percent effect” value in data set [2] stood at 29.9%. The percent viability in data set [3] stood at 24.8%.
Taken in the same sequence, the figures for “AAAAGUAAUUGCGGUUUUUGCC [hsa-miR-548c-5p]” were -19.1%, 16.9% and 166%.
Taken in the same sequence, the figures for AGUUAGGAUUAGGUCGUGGAA [hsa-miR-1258] were 6.84%, -19.1% and 37.3%.
For AGAGGACCCGUAGCUGCUAGAAGG [hsa-miR-4751], in that order: -23.3%, 41.7% and 106%.
For AAUAUAACACAGAUGGCCUGU [hsa-miR-410], the “one-nucleolus phenotype percent effect” value in data set [1] was -9.74%. Besides, the “5+ nucleoli phenotype percent effect” value in data set [2] was determined as 27.3%. Further, in data set [3], the percent viability is 164%.
Regarding UCUGUAGCCUGGGAGCAAUGGGGU [hsa-miR-3137], the “one-nucleolus phenotype percent effect” value in data set [1] was 24%. In data set [2], the “5+ nucleoli phenotype percent effect” value is -20.3%. Also, in data set [3], the percent viability was determined as 13.2%.
For UUUAAGCAGGAAAUAGAAUUUA [hsa-miR-4503], in that order: -6.55%, -5.17% and 100%.
Take “AGGCACCAGCCAGGCAUUGCUCAGC [hsa-miR-593-5p]”: the “one-nucleolus phenotype percent effect” value in data set [1] turned out to be 12.3%. Besides, the “5+ nucleoli phenotype percent effect” value in data set [2] was -0.886%. Also, in data set [3], the percent viability worked out at 40.2%.
